Laboratory results as given in paper PMC9477737, “Structural insights into auxin recognition and efflux by Arabidopsis PIN1” (Nature, 2022).

Legend:
[1] = target: the molecule itself; experiment: cryo-EM structure; purified PIN1 and sybody-21 mixed at a molar ratio of ~1:3, gel filtration in 25 mM HEPES pH 7.4, 150 mM NaCl, 0.02% GDN; apo, IAA-bound (10 mM IAA) and NPA-bound (100 uM NPA) samples
[2] = target: T1, Arabidopsis thaliana PIN1 (PIN-FORMED 1 auxin transporter), full length, N-terminal Flag tag (A. thaliana, UniProt Q9C6B8); experiment: as above; details: both partners purified
T1 construct: PIN1, Arabidopsis thaliana, UniProt Q9C6B8, full length; most of the hydrophilic loop is not visible in the cryo-EM map; Forms a homodimer in the cryo-EM structures; A monomeric class was also seen in the apo sample; also called AtPIN1; WT PIN1

Row | Binder | stoichiometry N [1] | binding result [2]
1 | Arabidopsis thaliana PIN1 (PIN-FORMED 1 auxin transporter), full length, N-terminal Flag tag (natural protein, A. thaliana, UniProt Q9C6B8 1-622, looked up, PIN1, Arabidopsis thaliana, UniProt Q9C6B8, full length; most of the hydrophilic loop is not visible in the cryo-EM map; Forms a homodimer in the cryo-EM structures; A monomeric class was also seen in the apo sample; also called AtPIN1; WT PIN1) MITAADFYHVMTAMVPLYVAMILAYGSVKWWKIFTPDQCSGINRFVALFAVPLLSFHFIAANNPYAMNLRFLAADSLQKVIVLSLLFLWCKLSRNGSLDWTITLFSLSTLPNTLVMGIPLLKGMYGNFSGDLMVQIVVLQCIIWYTLMLFLFEYRGAKLLISEQFPDTAGSIVSIHVDSDIMSLDGRQPLETEAEIKEDGKLHVTVRRSNASRSDIYSRRSQGLSATPRPSNLTNAEIYSLQSSRNPTPRGSSFNHTDFYSMMASGGGRNSNFGPGEAVFGSKGPTPRPSNYEEDGGPAKPTAAGTAAGAGRFHYQSGGSGGGGGAHYPAPNPGMFSPNTGGGGGTAAKGNAPVVGGKRQDGNGRDLHMFVWSSSASPVSDVFGGGGGNHHADYSTATNDHQKDVKISVPQGNSNDNQYVEREEFSFGNKDDDSKVLATDGGNNISNKTTQAKVMPPTSVMTRLILIMVWRKLIRNPNSYSSLFGITWSLISFKWNIEMPALIAKSISILSDAGLGMAMFSLGLFMALNPRIIACGNRRAAFAAAMRFVVGPAVMLVASYAVGLRGVLLHVAIIQAALPQGIVPFVFAKEYNVHPDILSTAVIFGMLIALPITLLYYILLGL | 2 | –
2 | Sybody-21 (synthetic nanobody selected against PIN1) (VHH, Selected by ribosome display and phage display from the Concave, Loop or Convex sybody libraries; The BLI methods speak of a His-tagged sybody; How the purified Sybody-21 was made is not described; also called the sybody) VHH: QVQLVESGGGLVQAGGSLRLSCAASGFPVNISWMEWYRQVPGKEREWVAAIQSTGSYTWYADSVKGRFTISRDNAKNTVYLQMNSLKPEDTAVYYCRVKVGAYYRGQGTQVTVSA | – | binds
